{"source": "patent US20120129768A1", "about": "(JIANGSU HANSOH PHARMACEUTICAL GROUP, published 2012)", "note": "Starred links: 1 amine or outer side, 2 acyl side, 3 side chain; linkers in the order of their positions; H or OH if unused. Non-standard residues stand in square brackets, D forms with d. No end group written: not given here. *: point of attachment. εLys = N[C@@H](CCCCN[*:1])C(=O)[*:2]; Palmitoyl = CCCCCCCCCCCCCCCC(=O)*; Aib = CC(C)(N)C(=O)O", "data": [{"molecular_target": "Glucagon-like peptide-1 receptor (GLP1R)", "assay": "cell-based or functional assay", "units": {"EC50 (nM), cAMP-response-element luciferase reporter in HEK293 cells with GLP1R": "nM", "Maximum reaction rate (%)": "%"}, "values": [{"binder": "HAEGTFTSDVSSYLEEQAAEFIVWLVKGRGKKGGPPPS[εLys](Palmitoyl) (not fully specified)", "note": "[HS-20007]", "EC50 (nM), cAMP-response-element luciferase reporter in HEK293 cells with GLP1R": 0.000549, "Maximum reaction rate (%)": 87}, {"binder": "HAEGTFTSDVSSYLEGQAAEFIVWLVKGRGKKGGPPPS[εLys](Palmitoyl) (not fully specified)", "note": "[HS-20005]", "EC50 (nM), cAMP-response-element luciferase reporter in HEK293 cells with GLP1R": 0.000236, "Maximum reaction rate (%)": 89.1}, {"binder": "H[Aib]EGTFTSDVSSYLEEEAAKEFIAWLVRGGPSSGAPPPSK (not fully specified (residue 40); ends and bridges not checked)", "note": "[HS-20004]", "EC50 (nM), cAMP-response-element luciferase reporter in HEK293 cells with GLP1R": 0.000373, "Maximum reaction rate (%)": 90.8}]}]}
